In paper PMC12840758, “The Cold Shock Protein CspB from Mycobacterium tuberculosis Binds to MTS0997 sRNA and MTS1338 sRNA as a Dimer” (International Journal of Molecular Sciences, 2026):

Target: the molecule itself
Assay: SEC; Superdex 75 Increase 10/300 GL, 200 mM NaCl, 50 mM Tris-HCl pH 8.0; 1 mg/mL, 100 uL injected, 0.5 mL/min; calibrated with monomeric globular proteins of 45.8, 24.8, 15.4 and 7.3 kDa

B1: Cold shock protein CspB from Mycobacterium tuberculosis (natural protein)
chain: MPTGKVKWYDPDKGFGFLSQEGGEDVYVRSSALPTGVEALKAGQRVEFGIASGRRGPQALSLRLIEPPPSLSRPRREPAAEHKHSPDELHGMVEDMITLLESTVQPELRKGRYPDRKTARRVAEVVRAVAREFES
notes: Removal of the C-terminal His6 tag is not mentioned; also called MtbCspB; M. tuberculosis CspB
stoichiometry N: 2
